B1: Eno2p: yeast enolase, GST fusion (protein, UniProt P00925 2-437, looked up)
Enolase 2: AVSKVYARSVYDSRGNPTVEVELTTEKGVFRSIVPSGASTGVHEALEMRDEDKSKWMGKGVMNAVNNVNNVIAAAFVKANLDVKDQKAVDDFLLSLDGTANKSKLGANAILGVSMAAARAAAAEKNVPLYQHLADLSKSKTSPYVLPVPFLNVLNGGSHAGGALALQEFMIAPTGAKTFAEAMRIGSEVYHNLKSLTKKRYGASAGNVGDEGGVAPNIQTAEEALDLIVDAIKAAGHDGKVKIGLDCASSEFFKDGKYDLDFKNPESDKSKWLTGVELADMYHSLMKRYPIVSIEDPFAEDDWEAWSHFFKTAGIQIVADDLTVTNPARIATAIEKKAADALLLKVNQIGTLSESIKAAQDSFAANWGVMVSHRSGETEDTFIADLVVGLRTGQIKTGAPARSERLAKLNQLLRIEEELGDKAVYAGENFHHGDKL
modifications: GST tag
notes: yeast enolase, GST fusion
B2: Hxk1p: yeast hexokinase, GST fusion (protein, UniProt P04806 1-485, looked up)
Hexokinase-1: MVHLGPKKPQARKGSMADVPKELMDEIHQLEDMFTVDSETLRKVVKHFIDELNKGLTKKGGNIPMIPGWVMEFPTGKESGNYLAIDLGGTNLRVVLVKLSGNHTFDTTQSKYKLPHDMRTTKHQEELWSFIADSLKDFMVEQELLNTKDTLPLGFTFSYPASQNKINEGILQRWTKGFDIPNVEGHDVVPLLQNEISKRELPIEIVALINDTVGTLIASYYTDPETKMGVIFGTGVNGAFYDVVSDIEKLEGKLADDIPSNSPMAINCEYGSFDNEHLVLPRTKYDVAVDEQSPRPGQQAFEKMTSGYYLGELLRLVLLELNEKGLMLKDQDLSKLKQPYIMDTSYPARIEDDPFENLEDTDDIFQKDFGVKTTLPERKLIRRLCELIGTRAARLAVCGIAAICQKRGYKTGHIAADGSVYNKYPGFKEAAAKGLRDIYGWTGDASKDPITIVPAEDGSGAGAAVIAALSEKRIAEGKSLGIIGA
modifications: GST tag
notes: yeast hexokinase, GST fusion
B3: Pyc1p: pyruvate carboxylase 1 homolog with conserved biotin-attachment region (protein, UniProt P11154 1-1178, looked up)
Pyruvate carboxylase 1: MSQRKFAGLRDNFNLLGEKNKILVANRGEIPIRIFRTAHELSMQTVAIYSHEDRLSTHKQKADEAYVIGEVGQYTPVGAYLAIDEIISIAQKHQVDFIHPGYGFLSENSEFADKVVKAGITWIGPPAEVIDSVGDKVSARNLAAKANVPTVPGTPGPIETVEEALDFVNEYGYPVIIKAAFGGGGRGMRVVREGDDVADAFQRATSEARTAFGNGTCFVERFLDKPKHIEVQLLADNHGNVVHLFERDCSVQRRHQKVVEVAPAKTLPREVRDAILTDAVKLAKECGYRNAGTAEFLVDNQNRHYFIEINPRIQVEHTITEEITGIDIVAAQIQIAAGASLPQLGLFQDKITTRGFAIQCRITTEDPAKNFQPDTGRIEVYRSAGGNGVRLDGGNAYAGTIISPHYDSMLVKCSCSGSTYEIVRRKMIRALIEFRIRGVKTNIPFLLTLLTNPVFIEGTYWTTFIDDTPQLFQMVSSQNRAQKLLHYLADVAVNGSSIKGQIGLPKLKSNPSVPHLHDAQGNVINVTKSAPPSGWRQVLLEKGPAEFARQVRQFNGTLLMDTTWRDAHQSLLATRVRTHDLATIAPTTAHALAGRFALECWGGATFDVAMRFLHEDPWERLRKLRSLVPNIPFQMLLRGANGVAYSSLPDNAIDHFVKQAKDNGVDIFRVFDALNDLEQLKVGVDAVKKAGGVVEATVCFSGDMLQPGKKYNLDYYLEIAEKIVQMGTHILGIKDMAGTMKPAAAKLLIGSLRAKYPDLPIHVHTHDSAGTAVASMTACALAGADVVDVAINSMSGLTSQPSINALLASLEGNIDTGINVEHVRELDAYWAEMRLLYSCFEADLKGPDPEVYQHEIPGGQLTNLLFQAQQLGLGEQWAETKRAYREANYLLGDIVKVTPTSKVVGDLAQFMVSNKLTSDDVRRLANSLDFPDSVMDFFEGLIGQPYGGFPEPFRSDVLRNKRRKLTCRPGLELEPFDLEKIREDLQNRFGDVDECDVASYNMYPRVYEDFQKMRETYGDLSVLPTRSFLSPLETDEEIEVVIEQGKTLIIKLQAVGDLNKKTGEREVYFDLNGEMRKIRVADRSQKVETVTKSKADMHDPLHIGAPMAGVIVEVKVHKGSLIKKGQPVAVLSAMKMEMIISSPSDGQVKEVFVSDGENVDSSDLLVLLEDQVPVETKA

What was measured:
PI(4,5)P2 liposomes = assay: Nitrocellulose membrane assay: adhered PI(4,5)P2 liposomes probed with GST fusion proteins; type: binding; settings: dilution series, anti-GST antibodies, ECL
Source text: A. PI(4,5)P2 liposomes were first adhered to a nitrocellulose membrane, which was blocked by BSA; a dilution series of Rim15p, Eno2p, and Hxk1p, and a GST control were used to probe the membrane. The bound proteins were detected using the anti-GST antibodies and an enhanced chemiluminescence (“ECL”) kit.
Therefore, six proteins, i.e., Rim15p, Eno2p, Hxk1p, Sps1p, Yg1059wp, and Gcn2p, were further tested for phosphoinositol binding using two types of standard assays (Williamson, 2000, Nat. Struct Biol. 7(10):834-7). For Rim15p, Eno2p, and Hxk1p, PI(4,5)P2 liposomes were first adhered to a nitrocellulose membrane, which was then blocked by BSA; different amounts of the GST fusion proteins and a GST control were used to probe the membrane, and bound proteins were detected using anti-GST antibodies. […] We also carried out the reverse assay for four GST fusion proteins, Rim15p, Sps1p, Yg1059wp, and Gcn2p (Guerra et al., 2000, Biosci. Rep. 20: 41). Different amounts of these purified proteins were spotted onto nitrocellulose filters and probed with the six different liposomes (FIG. 5B). The bound liposomes were detected using a horseradish peroxidase (“HRP”)-conjugated streptavidin.

[1] = tested on: phospholipids (phosphatidylinositols vs phosphatidylcholine); assay: Proteome chip lipid-binding screen, overall analysis of six liposomes (PI/PC specificity); settings: phospholipid liposome probes
Source text: FIGS. 4A-4D. Analysis of the phosphatidylinositol-binding proteins. To determine the phosphatidylinositol (“PI”)-binding specificity of 150 positive proteins, their binding signals were normalized against the corresponding binding signals of phosphatidylcholine (“PC”). Based on the ratios (“PI/PC”), the proteins were grouped into four categories: (A) 30 strong and specific, (B) 43 strong and nonspecific, (C) 19 weak and specific, and (D) 58 weak and nonspecific phosphatidylinositol-binding proteins. The intensity represents the PI/PC signal ratio as shown by the scale in the figure. The column, labeled “10^n” to the right of the PI/PC binding ratios indicates the maximum binding signal intensity (open boxes) and its confidence interval (solid horizontal lines); the numbers indicate the log of the values. Boxes in the three columns to the right of the confidence interval column indicate membrane-associated proteins (“Membrane”), kinases (“Kinase”), and uncharacterized ORFs (“Unknown”), respectively.
To identify PI-binding proteins in yeast, liposomes were used as probes because the liposome provides the most relevant physiological condition to assay the interactors. Six types of liposomes were used. Each contains phosphatidylcholine (“PC”) with 1% (w/w) N-(biotinoyl)-1,2-dihexadecanoyl-sn-glycero-3-phosphoethanolamine, triethylammonium salt (biotin DHPE). The biotinylated lipid serves as a label that can be detected by Cy3-streptavidin (21). In addition to PC, the five other liposomes contain either 5% (w/w) PI(3)P, PI(4)P, PI(3,4)P2, PI(4,5)P2, or PI(3,4,5)P3 (FIG. 3A).
The protein-liposome interaction was assayed as follows. Appropriate amounts of each lipid in chloroform were mixed and dried under nitrogen. The lipid mixture was resuspended in TBS buffer by vortexing. The liposomes were created by sonication. Blocked proteome chips were washed three to five times in PBS buffer, and the extra liquid on the glass surface was removed by tapping the slides vertically on a KIMWIPE™. 200 μl of liposome solution was added to the proteome chip and immediately covered by a hydrophobic plastic cover slip (GRACE BIO-LAB™, USA). After trapped air bubbles were removed, the chip was incubated in a humidity chamber at RT for one hour. To remove the cover slip, the chip was immersed into large volume of PBS buffer (50 ml), so that the slip would float away. The chip was then moved to a second PBS bath (>50 ml) and washed 3×5 min with shaking at RT. After removing extra liquid on the surface of the chip, about 100 μl of Cy3 or Cy5 conjugated streptavidin (PIERCE™, USA; 1:2000 to 1:4000 dilution) was added to the surface and covered by a hydrophobic plastic cover slip (GRACE BIO-LABS™, USA). The chip was incubated for greater than 30 min in the dark at RT. The chip was then washed as described above. To completely remove the liquid on the chip, the chip was spun to dryness at 1500-2000 rpm for 5-10 min at RT.
An algorithm was devised to assist in the identification of positive signals (42). Fifty-two (35%) of the interactors (i.e., lipid-binding proteins) correspond to uncharacterized proteins thus ascribing the first biochemical activities to those proteins.
The interactors (i.e., phospholipid-binding proteins) were grouped in several ways (42). First, the interactors were sorted according to whether they bound lipids strongly or weakly, based on the phospholipid-binding signal relative to the amount of GST (FIG. 4). Slightly more (72%) of the strong lipid binding proteins (FIGS. 4A and 4B) were characterized relative to the weakly binding proteins (54%) (FIGS. 4C and 4D). Many of the strong lipid-binding proteins are membrane-associated, or are predicted to be associated with membranes, whereas fewer of the weaker binding proteins appear to be associated with membranes (FIG. 4, “Membrane” column). […] Moreover, thirteen of the seventeen protein kinases bind very strongly to the phospholipids. […]

Cy3-labeled streptavidin = target: T1, Cy3-labeled streptavidin (Streptomyces avidinii, UniProt P22629); assay: Yeast proteome chip probed with Cy3-labeled streptavidin alone; type: binding
T1 construct: purchased Jackson IR, USA
T1 sequence (P22629 25-183): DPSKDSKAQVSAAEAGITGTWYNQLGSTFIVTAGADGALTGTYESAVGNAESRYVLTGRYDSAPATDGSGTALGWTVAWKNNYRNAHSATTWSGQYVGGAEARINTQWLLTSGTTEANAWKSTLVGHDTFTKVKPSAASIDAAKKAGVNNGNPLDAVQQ
Source text: To test for protein-protein interactions, the yeast proteome was probed with calmodulin (11). Calmodulin is a highly conserved calcium-binding protein involved in many calcium-regulated cellular processes and has many known physical partners (Hook et al., 2001, Annu. Rev. Pharmacol. Toxicol. 41:471). The calmodulin probe was biotinylated, and bound probe was detected using Cy3-labeled streptavidin. As a control, the yeast proteome was probed with Cy3-labeled streptavidin alone.
In addition to the calmodulin-binding targets, one protein, Pyc1p, which bound Cy3 -labeled streptavidin, was also identified. Pyc1p encodes a pyruvate carboxylase 1 homolog that contains a highly conserved biotin-attachment region (Menendez et al., 1998, Yeast 14:647). Thus, as predicted by its sequence, Pyc1p is biotinylated in vivo; and was identified in all experiments using streptavidin detection methods. Thus, proteome microarrays can be used to identify posttranslational modifications of proteins.

| Molecule | binding to PI(4,5)P2 liposomes on membrane (PI(4,5)P2 liposomes) | identified as lipid-binding interactor [1] | binding of Cy3-labeled streptavidin (Cy3-labeled streptavidin) |
| --- | --- | --- | --- |
| B1 | tightly bound PI(4,5)P2 | identified |  |
| B2 | tightly bound PI(4,5)P2 | identified |  |
| B3 |  |  | bound |

From patent US20050182242A1, “Global analysis of protein activities using proteome chips” (priority 2001, published 2005)
